Data on 5 substances can be found in paper PMC4683619.

For this assay, the target named is TNFR1 on L929 cells (mouse (endogenous in L929)) (UniProt P25118).
Sequence of UniProt P25118 (P25118 30-454): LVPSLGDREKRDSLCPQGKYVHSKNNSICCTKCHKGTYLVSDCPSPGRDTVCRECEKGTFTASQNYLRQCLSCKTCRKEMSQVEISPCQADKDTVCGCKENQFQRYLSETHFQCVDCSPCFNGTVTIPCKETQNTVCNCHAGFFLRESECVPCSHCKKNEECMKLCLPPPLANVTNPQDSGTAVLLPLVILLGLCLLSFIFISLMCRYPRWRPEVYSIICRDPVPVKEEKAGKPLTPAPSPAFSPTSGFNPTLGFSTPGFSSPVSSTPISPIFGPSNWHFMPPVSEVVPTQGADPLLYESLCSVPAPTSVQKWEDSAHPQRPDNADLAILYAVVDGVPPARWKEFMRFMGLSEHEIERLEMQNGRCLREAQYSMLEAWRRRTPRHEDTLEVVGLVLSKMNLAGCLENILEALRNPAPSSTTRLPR
“PRINT PEG5K scTNF-α (N-terminal mono-PEGylated single-chain TNF-α) (ligand)” had a cytotoxicity against L929 cells (WST-1, with actinomycin D, 24 h), EC50 of 0.00058 ng/mL.

Consider “PRINT PEG20K scTNF-α (N-terminal mono-PEGylated single-chain TNF-α) (ligand)”, for which the cytotoxicity against L929 cells (WST-1, with actinomycin D, 24 h), EC50 worked out at 0.00062 ng/mL.

As to citraconylated scTNF-α (ligand), the cytotoxicity against L929 cells (WST-1, with actinomycin D, 24 h), EC50 was 0.0076 ng/mL.

As for “randomly PEGylated scTNF-α (directly PEGylated PEG5K scTNF-α) (ligand)”, the cytotoxicity against L929 cells (WST-1, with actinomycin D, 24 h), EC50 came out at 0.0046 ng/mL.

“recombinant single-chain TNF-α, His tag cleaved, unmodified (ligand)”: the cytotoxicity against L929 cells (WST-1, with actinomycin D, 24 h), EC50 worked out at 0.00035 ng/mL.
